In assay [1] the target is T1, recombinant human CD64 protein (R&D systems) (human, UniProt P12314 16-288).
T1 construct: Bought protein; also called FcγRI; FcRγI
The assay is described as follows: ELISA: antibody titrated on coated PD-1 HIS, then recombinant human CD64 at 1 ug/mL, biotinylated anti-CD64 and streptavidin-HRP. How it is done:
(§1) Binding to FcRγI is a measure of the ability of an antibody to mediate ADCC. In order to assess this property for the caninized antibodies an assay to measure binding of caninized antibodies to FcγRI was conducted as follows: Coat 96-well plates with 100 μl per well of 2.5 μg/mL PD-1 HIS. Incubate at 2-7° C. overnight. Equilibrate the plates to room temp for 15 minutes. Wash plates 3× with phosphate buffered saline containing 0.05% Tween® 20 (PBST) and then block the wells using 200 μL/well of 5% NFDM (Non Fat Dried Milk). Incubate for 60 minutes at 36-38° C. Wash 3× with PBST. Make 2-fold dilution of antibodies starting at 1 μg/mL in 5% NFDM. Add 100 μL/well of diluted antibodies. Incubate for 60 minutes at 36-38° C. Wash 6× with PBST. Add 100 μL/well of recombinant human CD64 protein (R&D systems) diluted to 1 μg/mL. Incubate for 60 minutes at 36-38° C. Wash 6× with PBST. Add 100 μL/well biotinylated-anti-CD64 antibody (R&D systems) diluted to 1:3000. Incubate for 60 minutes at 36-38° C. Wash 6× with PBST. Add 100 μL/well Streptavidin-HRP antibody (R&D systems) diluted to 1:7500. Incubate for 60 minutes at 36-38° C. Wash 6× with PBST. Add 100 μL/well TMB substrate. Incubate for 10 minutes at 15-30° C. Read plates using ELISA plate reader at 450-540 nm.

In assay [2] the target is T1, recombinant human CD64 protein (R&D …). Briefly: ELISA: antibody captured on PD-1 HIS, recombinant human CD64 added. The procedure: as §1
For orientation: ELISA stands for enzyme-linked immunosorbent assay.

In another assay the target is T2, canine PD-1 (canine).
T2 construct: also called canine PD-1 antigen; cPD-1
T2 chain: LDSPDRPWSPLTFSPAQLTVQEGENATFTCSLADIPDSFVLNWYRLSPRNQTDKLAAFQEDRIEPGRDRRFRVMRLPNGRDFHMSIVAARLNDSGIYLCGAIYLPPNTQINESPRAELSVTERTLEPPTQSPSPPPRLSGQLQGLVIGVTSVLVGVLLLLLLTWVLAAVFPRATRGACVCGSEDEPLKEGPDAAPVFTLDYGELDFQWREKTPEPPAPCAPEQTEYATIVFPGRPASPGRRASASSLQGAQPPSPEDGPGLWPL
The assay is described as follows: SPR (Biacore T200), canine PD-1 amine-coupled, antibody as analyte, 1:1 fit. Background: Surface plasmon resonance follows binding to a sensor surface in real time, without labels.

T1 sequence (P12314 16-288 limits assumed): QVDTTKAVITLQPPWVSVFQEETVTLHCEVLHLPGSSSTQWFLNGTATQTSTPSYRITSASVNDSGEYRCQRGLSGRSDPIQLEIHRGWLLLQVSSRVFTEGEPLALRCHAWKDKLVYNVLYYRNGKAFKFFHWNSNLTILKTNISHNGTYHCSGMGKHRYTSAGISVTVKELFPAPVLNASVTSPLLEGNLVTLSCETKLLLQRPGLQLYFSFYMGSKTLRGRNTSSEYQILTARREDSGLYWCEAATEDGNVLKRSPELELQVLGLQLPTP

B1: can2H9 VH4/VL3 IgGB (antibody)
heavy: EVQLVQSGGDLVKPGGSVRLSCVASGFNIKNTYMHWVRQAPGKGLQWIGRIAPANVDTKYAPKFQGKATISADTAKNTAYMQLNSLRAEDTAVYYCVLIYYDYDGDIDVWGQGTLVTVSSASTTAPSVFPLAPSCGSTSGSTVALACLVSGYFPEPVTVSWNSGSLTSGVHTFPSVLQSSGLYSLSSMVTVPSSRWPSETFTCNVAHPASKTKVDKPVPKRENGRVPRPPDCPKCPAPEMLGGPSVFIFPPKPKDTLLIARTPEVTCVVVDLDPEDPEVQISWFVDGKQMQTAKTQPREEQFNGTYRVVSVLPIGHQDWLKGKQFTCKVNNKALPSPIERTISKARGQAHQPSVYVLPPSREELSKNTVSLTCLIKDFFPPDIDVEWQSNGQQEPESKYRTTPPQLDEDGSYFLYSKLSVDKSRWQRGDTFICAVMHEALHNHYTQESLSHSPGK
light: DIVMTQTPLSLSVSLGEPASISCHASQNINVWLSWYRQKPGQIPQLLIYKASHLHTGVPDRFSGSGSGTDFTLRISRVEADDAGVYYCQQGQSWPLTFGQGTKVEIKRNDAQPAVYLFQPSPDQLHTGSASVVCLLNSFYPKDINVKWKVDGVIQDTGIQESVTEQDSKDSTYSLSSTLTMSSTEYLSHELYSCEITHKSLPSTLIKSFQRSECQRVD
notes: also called 2H9 VH4 IgGB/VL3; caninized 2H9 with un-modified IgGB Fc
In the case of B1, the binding result in assay [1] is given as “binds”.

B2: can2H9 IgGD VH4/VL3 (antibody)
heavy chain: EVQLVQSGGDLVKPGGSVRLSCVASGFNIKNTYMHWVRQAPGKGLQWIGRIAPANVDTKYAPKFQGKATISADTAKNTAYMQLNSLRAEDTAVYYCVLIYYDYDGDIDVWGQGTLVTVSSASTTAPSVFPLAPSCGSTSGSTVALACLVSGYFPEPVTVSWNSGSLTSGVHTFPSVLQSSGLYSLSSTVTVPSSRWPSETFTCNVVHPASNTKVDKPVPKESTCKCISPCPVPESLGGPSVFIFPPKPKDILRITRTPEITCVVLDLGREDPEVQISWFVDGKEVHTAKTQPREQQFNSTYRVVSVLPIEHQDWLTGKEFKCRVNHIGLPSPIERTISKARGQAHQPSVYVLPPSPKELSSSDTVTLTCLIKDFFPPEIDVEWQSNGQPEPESKYHTTAPQLDEDGSYFLYSKLSVDKSRWQQGDTFTCAVMHEALQNHYTDLSLSHSPGK
light chain: DIVMTQTPLSLSVSLGEPASISCHASQNINVWLSWYRQKPGQIPQLLIYKASHLHTGVPDRFSGSGSGTDFTLRISRVEADDAGVYYCQQGQSWPLTFGQGTKVEIKRNDAQPAVYLFQPSPDQLHTGSASVVCLLNSFYPKDINVKWKVDGVIQDTGIQESVTEQDSKDSTYSLSSTLTMSSTEYLSHELYSCEITHKSLPSTLIKSFQRSECQRVD
notes: also called can2H9 VH4 IgGD/VL3
Regarding B2, in assay [1], the binding result was “no binding (tested: log(nM) about 0.83 (1 ug/mL))”.

B3: can2H9 ADCC(1060) VH4/VL3 (antibody)
heavy: EVQLVQSGGDLVKPGGSVRLSCVASGFNIKNTYMHWVRQAPGKGLQWIGRIAPANVDTKYAPKFQGKATISADTAKNTAYMQLNSLRAEDTAVYYCVLIYYDYDGDIDVWGQGTLVTVSSASTTAPSVFPLAPSCGSTSGSTVALACLVSGYFPEPVTVSWNSGSLTSGVHTFPSVLQSSGLYSLSSMVTVPSSRWPSETFTCNVAHPASKTKVDKPVPKRENGRVPRPPDCPKCPAPEMLGGPSVFIFPPKPKDTLLIARTPEVTCVVVDLDPEDPEVQISWFVDGKQMQTAKTQPREEQFNGTYRVVSVLPIGHQDWLKGKQFTCKVNNKGLPSPIERTISKARGQAHQPSVYVLPPSREELSKNTVSLTCLIKDFFPPDIDVEWQSNGQQEPESKYRTTPPQLDEDGSYFLYSKLSVDKSRWQRGDTFICAVMHEALHNHYTQESLSHSPGK
light: DIVMTQTPLSLSVSLGEPASISCHASQNINVWLSWYRQKPGQIPQLLIYKASHLHTGVPDRFSGSGSGTDFTLRISRVEADDAGVYYCQQGQSWPLTFGQGTKVEIKRNDAQPAVYLFQPSPDQLHTGSASVVCLLNSFYPKDINVKWKVDGVIQDTGIQESVTEQDSKDSTYSLSSTLTMSSTEYLSHELYSCEITHKSLPSTLIKSFQRSECQRVD
notes: also called YZZ1060
As to B3, in assay [1], the binding result is “binds”.

B4: can2H9 ADCC mut-1 VH4/VL3 (antibody)
heavy: EVQLVQSGGDLVKPGGSVRLSCVASGFNIKNTYMHWVRQAPGKGLQWIGRIAPANVDTKYAPKFQGKATISADTAKNTAYMQLNSLRAEDTAVYYCVLIYYDYDGDIDVWGQGTLVTVSSASTTAPSVFPLAPSCGSTSGSTVALACLVSGYFPEPVTVSWNSGSLTSGVHTFPSVLQSSGLYSLSSMVTVPSSRWPSETFTCNVAHPASKTKVDKPVPKRENGRVPRPPDCPKCPAPEMLGGPSVFIFPPKPKDTLLIARTPEVTCVVVALDPEDPEVQISWFVDGKQMQTAKTQPREEQFNGTYRVVSVLPIGHQDWLKGKQFTCKVNNKALPSPIERTISKARGQAHQPSVYVLPPSREELSKNTVSLTCLIKDFFPPDIDVEWQSNGQQEPESKYRTTPPQLDEDGSYFLYSKLSVDKSRWQRGDTFICAVMHEALHNHYTQESLSHSPGK
light: DIVMTQTPLSLSVSLGEPASISCHASQNINVWLSWYRQKPGQIPQLLIYKASHLHTGVPDRFSGSGSGTDFTLRISRVEADDAGVYYCQQGQSWPLTFGQGTKVEIKRNDAQPAVYLFQPSPDQLHTGSASVVCLLNSFYPKDINVKWKVDGVIQDTGIQESVTEQDSKDSTYSLSSTLTMSSTEYLSHELYSCEITHKSLPSTLIKSFQRSECQRVD
notes: also called can2H9VH4 IgGB ADCC (mut-1)/VL3; YZZ1057/Mut-1
Turning to B4, in assay [2], the binding result is recorded as “binds”.

B5: can2H9 ADCC (1061) VH4/VL3 (antibody)
heavy: EVQLVQSGGDLVKPGGSVRLSCVASGFNIKNTYMHWVRQAPGKGLQWIGRIAPANVDTKYAPKFQGKATISADTAKNTAYMQLNSLRAEDTAVYYCVLIYYDYDGDIDVWGQGTLVTVSSASTTAPSVFPLAPSCGSTSGSTVALACLVSGYFPEPVTVSWNSGSLTSGVHTFPSVLQSSGLYSLSSMVTVPSSRWPSETFTCNVAHPASKTKVDKPVPKRENGRVPRPPDCPKCPAPEMLGGPSVFIFPPKPKDTLLIARTPEVTCVVVDLDPEDPEVQISWFVDGKQMQTAKTQPREEQFNGTYRVVSVLPIGHQDWLKGKQFTCKVNNKALASPIERTISKARGQAHQPSVYVLPPSREELSKNTVSLTCLIKDFFPPDIDVEWQSNGQQEPESKYRTTPPQLDEDGSYFLYSKLSVDKSRWQRGDTFICAVMHEALHNHYTQESLSHSPGK
light: DIVMTQTPLSLSVSLGEPASISCHASQNINVWLSWYRQKPGQIPQLLIYKASHLHTGVPDRFSGSGSGTDFTLRISRVEADDAGVYYCQQGQSWPLTFGQGTKVEIKRNDAQPAVYLFQPSPDQLHTGSASVVCLLNSFYPKDINVKWKVDGVIQDTGIQESVTEQDSKDSTYSLSSTLTMSSTEYLSHELYSCEITHKSLPSTLIKSFQRSECQRVD
notes: also called can2H9 VH4 IgGB ADCC (1061)/VL3; YZZ1061
In the case of B5, the binding result in assay [1] is on record as “binds”.

B6: can2H9 ADCC(1059) VH4/VL3 (antibody)
heavy: EVQLVQSGGDLVKPGGSVRLSCVASGFNIKNTYMHWVRQAPGKGLQWIGRIAPANVDTKYAPKFQGKATISADTAKNTAYMQLNSLRAEDTAVYYCVLIYYDYDGDIDVWGQGTLVTVSSASTTAPSVFPLAPSCGSTSGSTVALACLVSGYFPEPVTVSWNSGSLTSGVHTFPSVLQSSGLYSLSSMVTVPSSRWPSETFTCNVAHPASKTKVDKPVPKRENGRVPRPPDCPKCPAPEMLGGASVFIFPPKPKDTLLIARTPEVTCVVVDLDPEDPEVQISWFVDGKQMQTAKTQPREEQFNGTYRVVSVLPIGHQDWLKGKQFTCKVNNKALPSPIERTISKARGQAHQPSVYVLPPSREELSKNTVSLTCLIKDFFPPDIDVEWQSNGQQEPESKYRTTPPQLDEDGSYFLYSKLSVDKSRWQRGDTFICAVMHEALHNHYTQESLSHSPGK
light: DIVMTQTPLSLSVSLGEPASISCHASQNINVWLSWYRQKPGQIPQLLIYKASHLHTGVPDRFSGSGSGTDFTLRISRVEADDAGVYYCQQGQSWPLTFGQGTKVEIKRNDAQPAVYLFQPSPDQLHTGSASVVCLLNSFYPKDINVKWKVDGVIQDTGIQESVTEQDSKDSTYSLSSTLTMSSTEYLSHELYSCEITHKSLPSTLIKSFQRSECQRVD
notes: also called can2H9 VH4 IgGB ADCC(1059)/VL3; YZZ1059
For B6, the binding result in assay [1] is given as “binds”.

B7: Murine 3B6 (antibody, V domains shown)
VH: QIQLVQSGPELKKPGETVKISCKASGYTFTTYGMSWVKQAPGKGLKWMGWINIYSGIPTYADDFKGRFAFSLETSASTAYLQIDNLKNEDTATYFCARFDGPDYWGQGTTLTVSS
VL: DIVMTQSPSSLAVSVGRKVTMSCKSSQSLLNSVNQKNYLAWYQQKPGQSPKVLVYFASARVSGVPDRFIGSGSGTDFTLAISSVQAEDLTTYFCQQYFSTPLTFGAGTKLELK
For B7, in the assay with canine PD-1, binding was characterised by a dissociation constant (Kd) of 2 nM, the koff was determined as 3.4e-05 s⁻¹ and the association rate constant (kon) is 18000 M⁻¹ s⁻¹.

In general, Kd refers to the free concentration of one partner at which half of the binding sites on the other are occupied at equilibrium, for simple one-to-one binding. Read a low Kd as higher affinity. Usually koff stands for a measure of how fast the partners let go of each other. As usually defined, the kon is the second-order rate constant of association. A low value points to slower complex formation.

The values are drawn from US20190002562A1 (INTERVET, published 2019).
